US7033991 (dated 2006)

Biological target: Furin (literature) (UniProt P09958)
Sequence (P09958 108-715): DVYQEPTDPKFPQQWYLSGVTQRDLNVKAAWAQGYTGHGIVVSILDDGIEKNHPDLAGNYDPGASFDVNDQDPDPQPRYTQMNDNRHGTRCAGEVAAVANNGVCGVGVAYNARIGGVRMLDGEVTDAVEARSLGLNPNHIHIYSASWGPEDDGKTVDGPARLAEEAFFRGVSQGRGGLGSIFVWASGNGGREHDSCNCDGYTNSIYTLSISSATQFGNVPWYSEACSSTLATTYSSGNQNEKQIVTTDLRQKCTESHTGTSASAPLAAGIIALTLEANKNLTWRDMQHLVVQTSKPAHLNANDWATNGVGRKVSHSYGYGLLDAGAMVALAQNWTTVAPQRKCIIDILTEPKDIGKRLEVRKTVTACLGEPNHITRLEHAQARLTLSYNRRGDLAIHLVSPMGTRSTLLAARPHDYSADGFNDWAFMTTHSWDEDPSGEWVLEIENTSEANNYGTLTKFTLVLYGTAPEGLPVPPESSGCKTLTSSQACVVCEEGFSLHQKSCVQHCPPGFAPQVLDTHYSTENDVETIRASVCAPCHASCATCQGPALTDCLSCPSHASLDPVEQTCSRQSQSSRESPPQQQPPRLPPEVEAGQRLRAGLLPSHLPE

B1: Proteinase inhibitor 8 (PI8) (protein)
chain: MDDLCEANGTFAISLFKILGEEDNSRNVFFSPMSISSALAMVFMGAKGSTAAQMSQALCLYKDGDIHRGFQSLLSEVNRTGTQYLLRTANRLFGEKTCDFLPDFKEYCQKFYQAELEELSFAEDTEECRKHINDWVAEKTEGKISEVLDAGTVDPLTKLVLVNAIYFKGKWNEQFDRKYTRGMLFKTNEEKKTVQMMFKEAKFKMGYADEVHTQVLELPYVEEELSMVILLPDDNTDLAVVEKALTYEKFKAWTNSEKLTKSKVQVFLPRLKLEESYDLEPFLRRLGMIDAFDEAKADFSGMSTEKNVPLSKVAHKCFVEVNEEGTEAAAATAVVRNSRCSRMEPRFCADHPFLFFIRHHKTNCILFCGRFSSP
B1 gave a Ki of 0.0538 nM.
